Results as given in the RNAGym collection of RNA variant scans (doi:10.7554/elife.80360).

B1: HDV Ribozyme (parent)
chain: GGCCGGCAUGGUCCCAGCCUCCUCGCUGGCGCCGGCUGGGCAACAUUCCGAGGGGACCGUCCCCUCGGUAAUGGCGAAUGGGACCCA

Variants of: B1
Test: self-cleavage, relative activity (ratio to wild type); higher = more cleavage; co-transcriptional

| Variant | self-cleavage |
| --- | --- |
| GUCCGGCAUGGUCCCAGCCUCCUCGCUGGCGCCGGCUGGGCAACAUCCCGAGGGGACCGUCCCCUCGGUAAUGGCGAAUGGGACCCA [G2U U47C] | 0 |
| GUCCGGCAUGGUCCCAGCCUCCUCGCUGGCGCCGGCUGGGCAACAUACCGAGGGGACCGUCCCCUCGGUAAUGGCGAAUGGGACCCA [G2U U47A] | 0 |
| GUCCGGCAUGGUCCCAGCCUCCUCGCUGGCGCCGGCUGGGCAACAUGCCGAGGGGACCGUCCCCUCGGUAAUGGCGAAUGGGACCCA [G2U U47G] | 0.119 |
| GGACGGCAUGGUCCCAGCCUCCUCGGUGGCGCCGGCUGGGCAACAUUCCGAGGGGACCGUCCCCUCGGUAAUGGCGAAUGGGACCCA [C3A C26G] | 0.415 |
| GUCCGGCAUGGUCCCAGCCUCCUCGCUGGCGCCGGCUGGGCAACAUUCCGAGGGGACCGUCCCCUCGGCAAUGGCGAAUGGGACCCA [G2U U69C] | 0 |
| GGACGGCAUGGUCCCAGCCUCCUCGCUGGCGCCGGCUGGGCGACAUUCCGAGGGGACCGUCCCCUCGGUAAUGGCGAAUGGGACCCA [C3A A42G] | 0.0615 |
| GGACGGCAUGGUCCCAGCUUCCUCGCUGGCGCCGGCUGGGCAACAUUCCGAGGGGACCGUCCCCUCGGUAAUGGCGAAUGGGACCCA [C3A C19U] | 0.0134 |
| GGACGGCAUGGUCCCAGCAUCCUCGCUGGCGCCGGCUGGGCAACAUUCCGAGGGGACCGUCCCCUCGGUAAUGGCGAAUGGGACCCA [C3A C19A] | 0.0199 |
| GGACGGCAUGGUCCCAGCCUCCUAGCUGGCGCCGGCUGGGCAACAUUCCGAGGGGACCGUCCCCUCGGUAAUGGCGAAUGGGACCCA [C3A C24A] | 0.0268 |
| GGACGGCAUGGUCCCAGCCUCCUUGCUGGCGCCGGCUGGGCAACAUUCCGAGGGGACCGUCCCCUCGGUAAUGGCGAAUGGGACCCA [C3A C24U] | 0.0755 |
| GUCCGGCAUGGUCCCAGCCUCCUCGCUGGCGCCGGCUGGGCAACAUUCCGAGGGGACCGGCCCCUCGGUAAUGGCGAAUGGGACCCA [G2U U60G] | 0.0831 |
| GUCCGGCAUGGUCCCAGCCUCCUCGCUGGCGCCGGCUGGGCAACAUUCCGAGGGGACCGACCCCUCGGUAAUGGCGAAUGGGACCCA [G2U U60A] | 0.0396 |
| GGACGGCAUGGUCCCCGCCUCCUCGCUGGCGCCGGCUGGGCAACAUUCCGAGGGGACCGUCCCCUCGGUAAUGGCGAAUGGGACCCA [C3A A16C] | 0.0875 |
| GGACGGCAUGGUCCCGGCCUCCUCGCUGGCGCCGGCUGGGCAACAUUCCGAGGGGACCGUCCCCUCGGUAAUGGCGAAUGGGACCCA [C3A A16G] | 0.401 |
| GGACGGCAUGGUCCCAGCCUCCUCGCUGGCGCCGGCUGGGCAACAUUCCGAGGGGACCGUUCCCUCGGUAAUGGCGAAUGGGACCCA [C3A C61U] | 0.554 |
| GGACGGCAUGGUCCCAGCCUCCUCGCUGGCGUCGGCUGGGCAACAUUCCGAGGGGACCGUCCCCUCGGUAAUGGCGAAUGGGACCCA [C3A C32U] | 0.119 |

| Variant | self-cleavage |
| --- | --- |
| GGACGGCAUGGUCCCAGCCUCCUCGCUGGCGCCGGCUGGGCAACAUUCGGAGGGGACCGUCCCCUCGGUAAUGGCGAAUGGGACCCA [C3A C49G] | 0.51 |
| GGACGGCAUGGUCCCAGCCUCCUCGCUGGCGCCGGCUGGGCAACAUUCAGAGGGGACCGUCCCCUCGGUAAUGGCGAAUGGGACCCA [C3A C49A] | 0.554 |
| GGACGGCAUGGUCCCAGCCUCCUCGCUGGCGCCGGCUGGGCAACAUUCUGAGGGGACCGUCCCCUCGGUAAUGGCGAAUGGGACCCA [C3A C49U] | 0.777 |
| GGACGGCAUGGUCCCAGCCUCCUCGCUGGCGCCGGCUGGGCAACAUUCCGAGGGGGCCGUCCCCUCGGUAAUGGCGAAUGGGACCCA [C3A A56G] | 0.632 |
| GGACGGCAUGGUCCCAGCCUCCUCGCUGGCGCCGGCUGGGCAACAUUCCGAGGGGACCGUCCCCUCGGUAAUGGCGAAUGGGACCCA [C3A] | 0.641 |
| GGACGGCAUGGUCCCAGCCUUCUCGCUGGCGCCGGCUGGGCAACAUUCCGAGGGGACCGUCCCCUCGGUAAUGGCGAAUGGGACCCA [C3A C21U] | 0.0314 |
| GGACGGCAUGGUCCCAGCCUACUCGCUGGCGCCGGCUGGGCAACAUUCCGAGGGGACCGUCCCCUCGGUAAUGGCGAAUGGGACCCA [C3A C21A] | 0.0339 |
| GGACGGCAUGGUCCCAGCCUCCUCGCUGGCGCCGGCUGGGCAGCAUUCCGAGGGGACCGUCCCCUCGGUAAUGGCGAAUGGGACCCA [C3A A43G] | 0.0821 |
| GGACGGCAUGGUCCCAGCCUCCUCGCUGGCGCCGGCUGGGCACCAUUCCGAGGGGACCGUCCCCUCGGUAAUGGCGAAUGGGACCCA [C3A A43C] | 0.0504 |
| GGACGGCAUGGUCCCAGCCUCCUCGCUGGCGCCGGCUGGGCAUCAUUCCGAGGGGACCGUCCCCUCGGUAAUGGCGAAUGGGACCCA [C3A A43U] | 0.191 |
| GGACGGCAUGGUCCCAGCCUCCUCGCUGGCGCUGGCUGGGCAACAUUCCGAGGGGACCGUCCCCUCGGUAAUGGCGAAUGGGACCCA [C3A C33U] | 0.166 |
| GGACGGCAUGGUCCGAGCCUCCUCGCUGGCGCCGGCUGGGCAACAUUCCGAGGGGACCGUCCCCUCGGUAAUGGCGAAUGGGACCCA [C3A C15G] | 0.237 |
| GGACGGCAUGGUCCAAGCCUCCUCGCUGGCGCCGGCUGGGCAACAUUCCGAGGGGACCGUCCCCUCGGUAAUGGCGAAUGGGACCCA [C3A C15A] | 0.306 |
| GGACGGCAUGGUCCCAGCCUCCUCGCUGGCGCCGGCUGGGCAACAUUCCGAGGGGACCGUCCCCUCGGUAAUGGCGAUUGGGACCCA [C3A A78U] | 0.0627 |
| GGACGGCAUGGUCCCAGCCUCCUCGCUGGAGCCGGCUGGGCAACAUUCCGAGGGGACCGUCCCCUCGGUAAUGGCGAAUGGGACCCA [C3A C30A] | 0.0393 |
| GGACGGCAUGGUCCCAGCCUCCUCGCUGGUGCCGGCUGGGCAACAUUCCGAGGGGACCGUCCCCUCGGUAAUGGCGAAUGGGACCCA [C3A C30U] | 0.143 |
